Assay: label from the status in PepcDB records
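Further: failed if final PepcDB status was selected cloned or expressed and not failed if soluble or beyond.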

Sequence | protein production
MKATTSLATSCRRLLLWGVLTLQCLFSTAQKRFTADVEQQAEKILSQMTLDEKLSYIGGINWMYTRPLERFGIPRLKMSDGPQGLGTHGPSTAYPCALMLAATWNEQLATEYGSALGKDCRARGVHVLLGPAVNIYRAPMCGRNFEYMGEDPYLTSRMATGYIKGVQGQGVMATIKHFIANNSDYDRDHISSDIDERTLNEIYFPSFRAAVQEAEVGAVMSSYNLLNGIYTTEHPWLLKDVLRQQWGFKGILMSDWGSTHHCIPAVKGGLDLEMPAGSKMQPEELKYYLRTGDITIETIDEKVRHILQTLLAFGFRETQQPDTHIPLKNPQCAQTALNVASEGLVLLKNTNQILPIRSGKVKTIAVVGKNAQGYVCGGGSGEVHPFQYVSVLDGIRKEAAERDIRVEYLDVYDYLPTIIFTDTERKQKGFRAQYFDNMNLEGTPKVEQTETKINYSWSGGTGLKEMPKEQFSVRWNGTICPQETDEYLFTLGGDDGYRLYIDGKLIADEWHEGAFRNSTYRCMLEAGKKYDLKIEYFQKGGGAAVNFIWKQKNASNNLFVEALNRNDLVVACIGFNSDTEGEGRDRTFELPEDEAQLLQNTLQSKRPVVGIVNAGGNVEMQSWEPSLKGLLWAWYGGQEAGTAIARTLFGELNPSGKLPITFEKRWEDNPTFHSYYDPDGDKHVEYAEGIFVGYRGYDKLKREVQYPFGYGLSYTRFKLSAPTVGTPKTDGSVTVTCKLTNTGRTAGAEVVQLYVSNKDTTVEHPEKELKGFRKVYLEPGETKSIEITVPAEAFSHYDTGSRRFVIDRGSHDILLGFSSRDIKAKMSVGISR | failed
MVSGKVLKEPASGFMFMDTLDRGVKGYAGGWLVRGKRYNCIVETGAGAAVPLWLAGLKQAGIPLESIRWILLTHVHLDHAGGAGELLRHLPNARIGIHPLGVRHILDPQRLLSHAKVVWEKDFDLLGPMLPAPAERVVELGDGEIIEIDDVRRIKVLYTPGHTSHHVAFFEESTRGVFSGDALGAFFRGKHPFGEYVSMPGVSPPKGDIPAYVQSVERIAKLSPRRIYATHFGLWEPAMPYILSATSQIITISDLCRDVFYGGGGLQDFLSRAATLLASVRQSTRGQVELEKNYFSMAKAVWNYVVAEKGGESSPG | failed
MEQHQVWAYQTKTHSVTLNSVDIPALAADDILVQNQAIGINPVDWKFIKANPINWSNGHVPGVDGAGVIVKVGAKVDSKMLGRRVAYHTSLKRHGSFAEFTVLNTDRVMTLPDNLSFERAAALPCPLLTAWQAFEKIPLTKQREVLIVGFGAVNNLLTQMLNNAGYVVDLVSASLSQALAAKRGVRHLYREPSQVTQKYFAIFDAVNSQNAAALVPSLKANGHIICIQDRIPAPIDPAFTRTISYHEIALGALHDFGDRQDWQILMQQGEALLTLIAQGKMEIAAPDIFRFEQMIEALDHSEQTKLKTVLTLNE | not failed
MEIIHLSEIDSTNDYAKELAKEGKRNFIVLADKQNNGKGRWGRVWYSDEGGLYFSMVLDSKLYNPKVINLLVPICIIEVLKNYVDKELGLKFPNDIMVKVNDNYKKLGGILTELTDDYMIIGIGINVNNQIRNEIREIAISLKEITGKELDKVEILSNFLKTFESYLEKLKNKEIDDYEILKKYKKYSITIGKQVKILLSNNEIITGKVYDIDFDGIVLGTEKGIERIPSGICIHVR | not failed
MGRRLVPLTLDNLPDLPKRCRACVFWELDPVSGEAAVKAGTSALEKEAWISAVLLDWGSCGRVVYVDDVPVGFVLYAPPAYVPRSTAFPTSPVSPDAVQLMTAFIMPGYQGQGLGRVMVQTVAKDLLRRGFKAIEAFGDAHWK | failed
MAQNEGVSFSECVAAAKLIRSSNGPGWRQAWEELARSHVQRAEEARRTGNEPEAQKSWLHAANYFMAAAIESCPEGAEPALGALARSCLHNYLAHLTPQGETVAIPWLEPRSLEGFYLPVGTYSAETGPVVVCIAETRRTKEEILSLVLRSARKRGMTLLCVDLPDEPPSSRAGPETGIPAILDYLIDGRGIDAKRIAVISDGSPSSLVTRGIALDGRIAAAVCDGGLWDLWVARQTEACGAALGMVQGCARRPAVSCPMLVPLLASEGIEPGHARQLLTEHHPGNRDILLKVFGETSSGPWTLNGYDPILVADFVFDWVGQQLKAATGDADCIRRLESRL | failed
MLVALITLAFIHFCALITPGPDFFLVSQTAVSRSRKEAMLVVAGITAGVMFWASLALMGLNIIFEKMAWLKQGLLIAGGLYLCWLGYQMLRSAFSKNQQEEVTTVELPKAPYLFFMKGLLTNLSNPKAVIYFGSVFSLFLANPQLDQVHWLLFIIVSVETILWFCFVTFIFSLPSFRAAYRNFSKWIDGISGGIFTVFGIFLIGNR | failed
TIDLDYQRLALESLRFGHQKILEKIAKEKPKTNASNEDEDNLNASMIVTDTSTGKILALVGGIDYKKSAFNRATQAKRQFGSAIKPFVYQIAFDNGYSTTSKIPDTARNFENGNYSKNSEQNHAWHPSNYSRKFLGLVTLQEALSHSLNLATINLSDQLGFEKIYQSLSDMGFKNLPKDLSIVLGSFAISPIDAAEKYSLFSNYGTMLKPMLIESITNQQNDVKTFTPMETKKITSKEQAFLTLSVLMDAVENGTGSLARIKGLEIAGKTGTSNNNIDAWFIGFTPTLQSVIWFGRDDNTPISKGATGGVVSAPVYSYFMRNILAIEPSLKR | failed
MKLVTISGPPSSGKTAVLAGVIRAMMASGLKVGALKYDCLATNDDDVFRAIGVPVQTGLSGNLCPDHYFVSNIEECLDWGIREGFDFLLSESAGLCNRCAPHIKGVLAVCVIDNLMGATTPKKIGPMLKYADIVVITKGDIVSQAEREVFAFQVRRANPRAKIMHVNGITGQGAGELASQFLLAPETTCLDGSRLRFSMPAALCSYCLGETRIGMEFQLGNVKKIKMSEEPARLEHHHHHH | not failed
MTRHNEIIKCAEKYQLHIQPQTISLNESGLDFQVAFGKDKHGVEWVLRLPRRPDVYKRTKPEKQTVDFLQKNVSFEIPKWKVHAKDLIAYPKLTGKPAATIDPEIQNYVWEIEHKPLPENFINTLAETLVDLHNIPEENINVQHINIKTIQEIKNDFQRRMNKVKETYGVSDELWNRWKQWLENDELWPRHATMIHGDLHPGHIMVDNQANVTGLIDWTEATHSDPSMDFIGHHRVFDDEGLEQLITAYGKAGGEIWPRMKEHIIELNAVFPMFIAEFAMESGESAYETMALKELGMKE | failed
MDYSQFLYMKEELSLIAVILILFVVDLLTCPDQKGATPKVNVRSLTLPAVILMTLHTVINLFPGTPAEAFGGMYQYTPMQTIIKAVLNVGTIIVLLMAHEWLKREDTRIKQGEFYVLTLSTLLGMYFMISAGHFLMFFIGLEMASIPMAALVAFDKYRHHSAEAGAKYILTALFSSALLLFGLSMIYGTSGTLYFNDLPGHITGNMLQIMAFVFFFAGMGFKISLVPFHLWTADVYEGAPTAVTSYLSVISKGSAAFVLMTILMKVFAPMVAQWQEVLFWVTIASITIANLFAIRQQNLKRFMAFSAISQAGYIMLGVIGGSEMGMTALVYYVLVYLAANLGVFAVISIVEQRSNKVEIDDYNGLYKTNPKLAFIMTLALFSLAGIPPFAGFFSKFFIFMAAFNSGFHLLVFIALINTVVSLYYYLLIVKAMYINPNEEPIPTFRSDNYTKVSLVLCTLGIIALGIASCIYQGIDKFSFGMGM | failed
MSSTTNPSTHHTSTIGAIGAPSRRNTELALLVFAVLIPVFAYANVGLAINDEVPAGLLSYGFGLGLLAGVGHLVVRKFAPYADPLLLPLATLLNGLGLVAIWRLDQSDRLQSSKLFVEAAPRQLMYSALGVALFVAVLVFLRDHRVLQRYTYISMAGALVLLLLPLVPGLGHDNFGAKIWIKIPGLGTLQPGEFAKIVLAVFFAGYLMVKRDALALASRRFMGLYLPRGRDLGPIIVVWIISILILVFETDLGTSLLFFGMFVIMLYVATERTSWIVFGLLMSAVGAVGVASFESHVQQRVQAWLDPMHEYELSRQGVFGHTEQSMQALWAFGSGGTLGSGWGQGNSDLIGFAANSDFILATFGEELGLAGLMALLLLYALIVERGVRTALAARDPFGKLLAIGLSGAFALQVFVVAGGVMGLIPLTGMTMPFLAYGGSSVIANWALIGILLRISDTARRPAPAAPANPDAEMTQVVRP | failed
KIDFISDVSCPWCVIGLRALDQALEALGDEVQAQIHFQPFELNPNMPAEGQDIKEHIAEKYGSTPEQIEAIHETIRERGAELGFTFGKGERRIYNTFDAHRLLHWAEQEGKQPALKQALFVAYFSELKDPSSHQTLADVAQKVGLDRLRAQAILDSDEFASEVREAEQLWTSRGITSVPTMVFNDQYAVSGGQPVEVFVSAIRQMLSES | failed
MTVDPASHITIPEADLARLRHCNHHDPHGFYGWHETEAGSVIRTRQVGATQVNLLIDDTSHVMTPIGDDIFAIDLGHRERADYRLEVTWPDQEPQVKADPYYFLPTVG | not failed
MSAKIVTVFNQKGGCGKTTVSMHIAGTLGVRGSKTLLVDMDEQGTATRWAAQAPEEKPFPASVIGLAPSGGAMHREVRKFIADYDYIVVDCPPAVHSPASSSALLISDIAIIPVVPSPPDLWAAVAAKALAQQAQVTNETLRVRVLANMVQRRVSLAKQAIEILGDDGDIPLMESMIGSRSAFRECQAIGATVHGVPGAREAINEVDIMVNEVLQLLREGQA | failed
MKEFFKMFFASILGVITAGIILFCIFLFIFFGIVAGIASKATGGTIPKIEANSILHIDNSSFPEIVSANPWSMLTGKDESVSLSQAVEAIGQAKNNPNITGIFLDLDNLSVGMASAEELRRALQDFKMSGKFVVSYADRYTQKGYYLSSIADKLYLNPKGMLGLIGIATQTMFYKDALDKFGVKMEIFKVGTYKAAVEPFMLNRMSDANREQITTYINGLWDKITSDIAESRKTAMDSVKMFADKGEMFGLAEKAVEMKLVDELAYRTDVEKELKKMSQRGEKDELRFVSLSQVLANGPMNKTKGSRIAVLFAEGEITEEIIKKPFDTDGSSITQELAKEIKAAADDDDIKAVVLRVNSPGGSAFTSEQIWKQVADLKAKKPIVVSMGDVAASGGYYIACAANSIVAEHTTLTGSIGIFGMFPNFAGVAKKIGVNMDVVQTSKYADLGNTFAPMTVEDRALIQRYIEQGYDLFLTRVSEGRNRTKAQIDSIAQGRVWLGDKALALGLVDELGGLDTAIKRAAKLAQLGGNYSIEYGKTKRNFFEELLSSSAADMKSAILSTILSDPEIEVLRELRSMPPRPSGIQARLPYYFMPY | failed
MATLDERARPWARKSRWNGYAYEFLLFGLKQAWACLFGGLMLALLVGTKLFWPEAAPIARYDFLVVAAIAIQASLLALKLERWDEALVIFMFHVVGTIMELFKTAHGSWIYPEDSVLRIGGVPLFTGFMYACVGSYIARIWRLFDITFIRYPPFWTTHILAVLIYANFFTHHYMIDIRVGLFALSVLLFGRTWFVFTPDQTARRMPMLMGAVLVSLFIWFAENLGTFAGAWIYPNQADGWQMVPFEKMGAWYLLMLISFVLVTLVHPPVHACVARIRQGIWRAA | failed
MTKNEEGRVRRFVIRYVGSGRVPPCWIAGIFALCWGGVALAGGVALQSVDFTALPSENFQLRLGFDGPVPEPRSFTTEHPARIALDLAGVRSDLDKKPIPVHQAGVETVQAIAAGGRTRVILNLATAVPYTTRVAGRFLYVTLQSGKAGSRADDSASAPVVVTERPVVGGPQVESIDFRRGEKGEGRLLVALSDPNSLINLREEGRSVVADLPGTSLPGRLARRLEVIDFATPVKWVEAMPVGRGARLLITPVSDEYDYSSYQSGKLLTVELRPLSRAEKEEAKKRRLVFAGERLSLNFQDIPVRNVLQILADFTNLNIVASDSVQGSVTLRLNEVPWDEALDLVLKAKGLGKRQEANSNVIRVAPLDEINRSERDELEALKVVEDLEPLRTEIIQINYTKADDIKKVIMGTTEKAEKAITRPEALTGGPGVTSTEAYDVTQSILSSRGNVTTDPRTNQLIVQDTPRNLERIRDLVRQLDKPVRQVMIESRVVIANVDFLRELGAKLDFRPKNLTAAERLNPTGSMADLGVDLAKLTTLSPYGTAQYVVSMGDYLLDLELSAAQKEGRGEIVANPRVLTADQSKAKIMQGVELPYQITQQGTGGGIPVQNVAFKPAVLELDVTPHITPDDHILMDLMVKKDDKGELAPNGNFAIEKREIDTVAQVANGETVVLGGVYEGTRRNNTDKVPFFGDLPGIGFMFRRNAVEDRKKELLIFITPKIVKQTSMTP | failed
